Measured values taken from patent US20170298146A1 (MODIQUEST B V, published 2017).
Non-standard residues stand in square brackets, D forms with d. No end group written: not given here. Cit = NC(=O)NCCC[C@H](N)C(=O)O

Tests used:
[1] = biological target: T1, huPAD2 deiminated human recombinant histone H3 (human); assay: ELISA, 0.000128 ug/well
T1 construct: also called H3/p2
Procedure: (§1) CFC-1 and CFC-0 were coated at the same concentration and served as positive and negative controls, respectively, for specific anti-citrulline reactivity and as coating controls. Non-coated wells were used to test for aspecific binding of the antibodies. […] Detection of bound anti-citrulline antibodies was performed by incubating the wells with rabbit-anti-human-HRP (1:2000) for one hour at RT followed by incubation with TMB substrate. The resulting OD (y-axis) is a measure for antibody binding. H1=recombinant histone 1; H1/p2=huPAD2 recombinant histone 1; H1/p4=huPAD4 recombinant histone 1 and so forth (x-axis).

[2] = biological target: T2, huPAD2 deiminated human recombinant histone H2A (human); assay: ELISA, 0.000128 ug/well
T2 construct: also called H2A/p2
Procedure: as §1

[3] = biological target: T3, huPAD4 deiminated human recombinant histone H2B (human); assay: ELISA, 0.000128 ug/well
T3 construct: also called H2B/p4
Procedure: as §1

[4] = biological target: T4, human recombinant histone H4 (human, UniProt P62805 2-103); assay: ELISA, 0.000128 ug/well
Procedure: as §1

[5] = biological target: T5, huPAD2 deiminated human recombinant histone H2B (human); assay: ELISA, 0.000128 ug/well
T5 construct: also called H2B/p2
Procedure: as §1

[6] = biological target: T6, human recombinant histone H2B (human); assay: ELISA, 0.000128 ug/well
T6 construct: Non-deiminated
Procedure: as §1

[7] = biological target: T7, huPAD4 deiminated human recombinant histone H3 (human); assay: ELISA, 0.000128 ug/well
T7 construct: also called H3/p4
Procedure: as §1

CFC-1 = biological target: T8, CFC-1; assay: ELISA, 0.0032 ug/well
T8 construct: Positive control for anti-citrulline reactivity; also called cfc1 XG
Procedure: as §1, with “Deiminated, as well as non-deiminated histones, were immobilized on 96-well ELISA plates (0.3 μg/well). CFC-1” for “CFC-1”

[8] = biological target: T1, huPAD2 deiminated human recombinant …; assay: ELISA, 0.0032 ug/well
Procedure: as §1, with “Deiminated, as well as non-deiminated histones, were immobilized on 96-well ELISA plates (0.3 μg/well). CFC-1” for “CFC-1”

[9] = biological target: T2, huPAD2 deiminated human recombinant …; assay: ELISA, 0.0032 ug/well
Procedure: as §1, with “Deiminated, as well as non-deiminated histones, were immobilized on 96-well ELISA plates (0.3 μg/well). CFC-1” for “CFC-1”

[10] = biological target: T3, huPAD4 deiminated human recombinant …; assay: ELISA, 0.0032 ug/well
Procedure: as §1, with “Deiminated, as well as non-deiminated histones, were immobilized on 96-well ELISA plates (0.3 μg/well). CFC-1” for “CFC-1”

[11] = biological target: T4, human recombinant histone H4; assay: ELISA, 0.0032 ug/well
Procedure: as §1, with “Deiminated, as well as non-deiminated histones, were immobilized on 96-well ELISA plates (0.3 μg/well). CFC-1” for “CFC-1”

[12] = biological target: T5, huPAD2 deiminated human recombinant …; assay: ELISA, 0.0032 ug/well
Procedure: as §1, with “Deiminated, as well as non-deiminated histones, were immobilized on 96-well ELISA plates (0.3 μg/well). CFC-1” for “CFC-1”

[13] = biological target: T6, human recombinant histone H2B; assay: ELISA, 0.0032 ug/well
Procedure: as §1, with “Deiminated, as well as non-deiminated histones, were immobilized on 96-well ELISA plates (0.3 μg/well). CFC-1” for “CFC-1”

[14] = biological target: T9, huPAD4 deiminated human recombinant histone H2A (human); assay: ELISA, 0.0032 ug/well
T9 construct: also called H2A/p4; huPAD4 deiminated histone 2A
Procedure: as §1, with “Deiminated, as well as non-deiminated histones, were immobilized on 96-well ELISA plates (0.3 μg/well). CFC-1” for “CFC-1”

[15] = biological target: T7, huPAD4 deiminated human recombinant …; assay: ELISA, 0.0032 ug/well
Procedure: as §1, with “Deiminated, as well as non-deiminated histones, were immobilized on 96-well ELISA plates (0.3 μg/well). CFC-1” for “CFC-1”

[16] = biological target: T10, Histone 2A citrulline-containing peptide 11 (human, also: biotin label); assay: peptide ELISA, 0.000128 ug/well
T10 peptide: LQLAI[Cit]NDEELN
Procedure: as §1, with “Biotin and citrulline-containing peptides derived from histone 2A were immobilized on NEUTRAVIDIN®-coated 96-well ELISA plates (0.3 μg/well). CFC-1” for “CFC-1”, “controls respectively” for “controls, respectively,”, “binding.” for “binding. H1=recombinant histone 1; H1/p2=huPAD2 recombinant histone 1; H1/p4=huPAD4 recombinant histone 1 and so forth (x-axis).”
(§2) Ninety-six-well ELISA plates were coated with NEUTRAVIDIN® (0.1 μg/well) by overnight incubation at 4° C. Wells were washed five times with PBS-TWEEN®-20 (PBS-T) and blocked by a one-hour incubation with PBS-T+1% Bovine serum albumin (BSA) at room temperature (RT). After five more washes with PBS-T, wells were incubated for one hour at RT with histone-derived citrulline and biotin-containing peptides (0.3 μg/well). […] Wells were washed five times with PBS-T and incubated with rabbit-anti-human-HRP (1:2000) for one hour at RT followed by five washes with PBS-T and three wash steps with PBS. Wells were incubated for five minutes with TMB substrate before stopping the reaction with 2 M H₂SO₄. Optical density was measured by 450 nm and is a measure for the affinity of the antibodies used.

[17] = biological target: T11, Histone 2A citrulline-containing peptide 5 (human, also: biotin label); assay: peptide ELISA, 0.000128 ug/well
T11 peptide: VGRVH[Cit]LLRKGN
Procedure: as §1, with “Biotin and citrulline-containing peptides derived from histone 2A were immobilized on NEUTRAVIDIN®-coated 96-well ELISA plates (0.3 μg/well). CFC-1” for “CFC-1”, “controls respectively” for “controls, respectively,”, “binding.” for “binding. H1=recombinant histone 1; H1/p2=huPAD2 recombinant histone 1; H1/p4=huPAD4 recombinant histone 1 and so forth (x-axis).”
as §2

[18] = biological target: T12, Histone 2A citrulline-containing peptide 8 (human, also: biotin label); assay: peptide ELISA, 0.000128 ug/well
T12 peptide: AGNAA[Cit]DNKKTR
Procedure: as §1, with “Biotin and citrulline-containing peptides derived from histone 2A were immobilized on NEUTRAVIDIN®-coated 96-well ELISA plates (0.3 μg/well). CFC-1” for “CFC-1”, “controls respectively” for “controls, respectively,”, “binding.” for “binding. H1=recombinant histone 1; H1/p2=huPAD2 recombinant histone 1; H1/p4=huPAD4 recombinant histone 1 and so forth (x-axis).”
as §2

msFibα XG = biological target: T13, msFibα XG (mouse, X at position 8 is citrulline; biotin label); assay: peptide ELISA, 10 ug/well
T13 peptide: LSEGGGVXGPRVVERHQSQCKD
Procedure: (§3) Biotin and citrulline-containing peptides derived from fibrinogen and vimentin were immobilized on NEUTRAVIDIN®-coated 96-well ELISA plates (0.3 μg/well). CFC-1 and CFC-0 were coated at the same concentration and served as positive and negative controls respectively for specific anti-citrulline reactivity and as coating controls. Non-coated wells were used to test for aspecific binding of the antibodies. […] Detection of bound anti-citrulline antibodies was performed by incubating the wells with rabbit-anti-human-HRP (1:2000) for one hour at RT followed by incubation with TMB substrate. The resulting OD (y-axis) is a measure for antibody binding.
(§4) Biotin-labeled and citrulline-containing fibrinogen and vimentin peptides (Table 5) were also tested for reactivity with the therapeutic antibodies. Peptides were coated on 96-well NEUTRAVIDIN®-ELISA plates.

msFibβ XG = biological target: T14, msFibβ XG (mouse, also: biotin label); assay: peptide ELISA, 10 ug/well
T14 peptide: EPTDSLDA[Cit]GHRPVDRR
Procedure: as §3, §4

B1: RhmAb2.102 (antibody, human IgG1, lambda)
heavy: not shown
light: QSVLTQPPSMSAAPGQKVTISCSGSSSNIGNNYVSWYQQVPGTAPKLLIYDDNKRPSGIPGRFSGSKSATSATLGITGLQAGDEADYYCGSWDDNLSVVLFGGGTKLTVLGQPKAAPSVTLFPPSSEELQANKATLVCLISDFYPGAVTVAWKADSSPVKAGVETTTPSKQSNNKYAASSYLSLTPEQWKSHRSYSCQVTHEGSTVEKTVAPTECS
notes: Human IgG1 lambda; also called Rhm2.102
For B1, the OD [1] was 0.066 OD, the OD [2] was 0.063 OD and the OD [3] was 0.053 OD. The OD [4] was 0.06 OD, the OD [5] was 0.051 OD and the OD [6] was 0.052 OD. For the same binder, the OD [7] was 0.06 OD, the OD (CFC-1) was 0.178 OD and the OD [8] was 0.08 OD. The OD [9] was 0.161 OD, the OD [10] was 0.052 OD and the OD [11] was 0.06 OD. For the same binder, the OD [12] was 0.052 OD, the OD [13] was 0.05 OD and the OD [14] was 0.135 OD. The OD [15] was 0.065 OD, the OD [16] was 0.059 OD and the OD [17] was 0.059 OD. For the same binder, the OD [18] was 0.055 OD, the OD (msFibα XG) was 3.03 OD and the OD (msFibβ XG) was 3.8 OD.
